# Measurements published in patent US20190225692A1 (JUNO THERAPEUTICS, published 2019).
# Numbering of substitutions follows the chain as printed.
# B1: TCR 39 (codon optimized, cysteine modified version) (TCR, V domains shown)
# V domain 1: GQQLNQSPQSMFIQEGEDVSMNCTSSSIFNTWLWYKQEPGEGPVLLIALYKAGELTSNGRLTAQFGITRKDSFLNISASIPSDVGIYFCAGYSSSNDYKLSFGAGTTVTVRA
# V domain 2: EPEVTQTPSHQVTQMGQEVILRCVPISNHLYFYWYRQILGQKVEFLVSFYNNEISEKSEIFDDQFSVERPDGSNFTLKIRSTKLEDSAMYFCASTPRDRGKEAFFGQGTRLTVVE
# B2: TCR 50 (codon optimized, cysteine modified version) (TCR, V domains shown)
# V domain 1: GEDVEQSLFLSVREGDSSVINCTYTDSSSTYLYWYKQEPGAGLQLLTYIFSNMDMKQDQRLTVLLNKKDKHLSLRIADTQTGDSAIYFCAESPPGTYKYIFGTGTRLKVLA
# V domain 2: DSGVTQTPKHLITATGQRVTLRCSPRSGDLSVYWYQQSLDQGLQFLIHYYNGEERAKGNILERFSAQQFPDLHSELNLSSLELGDSALYFCASSATRDAYGYTFGSGTRLTVVE
# B3: TCR 37 (codon optimized, cysteine modified version) (TCR, V domains shown)
# V domain 1: ELKVEQNPLFLSMQEGKNYTIYCNYSTTSDRLYWYRQDPGKSLESLFVLLSNGAVKQEGRLMASLDTKARLSTLHITAAVHDLSATYFCAGYSGAGSYQLTFGKGTKLSVIP
# V domain 2: GAGVSQSPRYKVAKRGQDVALRCDPISGHVSLFWYQQALGQGPEFLTYFQNEAQLDKSGLPSDRFFAERPEGSVSTLKIQRTQQEDSAVYLCASSLLLGAYGYTFGSGTRLTVVE
# B4: TCR 45 (codon optimized, cysteine modified version) (TCR, V domains shown)
# V domain 1: GQQVMQIPQYQHVQEGEDFTTYCNSSTTLSNIQWYKQRPGGHPVFLIQLVKSGEVKKQKRLTFQFGEAKKNSSLHITATQTTDVGTYFCAGSSGAGSYQLTFGKGTKLSVIP
# V domain 2: GAGVSQSPSNKVTEKGKDVELRCDPISGHTALYWYRQRLGQGLEFLIYFQGNSAPDKSGLPSDRFSAERTGESVSTLTIQRTQQEDSAVYLCASSLYLGTTGELFFGEGSRLTVLE
# B5: TCR 34 (codon optimized, cysteine modified version) (TCR, V domains shown)
# V domain 1: ELKVEQNPLFLSMQEGKNYTIYCNYSTTSDRLYWYRQDPGKSLESLFVLLSNGAVKQEGRLMASLDTKARLSTLHITAAVHDLSATYFCAVSGTYKYIFGTGTRLKVLA
# V domain 2: ETGVTQSPTHLIKTRGQQVTLRCSSQSGHNTVSWYQQALGQGPQFIFQYYREEENGRGNFPPRFSGLQFPNYSSELNVNALELDDSALYLCASSSYAGSYEQYFGPGTRLTVTE
# B6: TCR 46 (codon optimized, cysteine modified version) (TCR, V domains shown)
# V domain 1: AQSVTQLDSQVPVFEEAPVELRCNYSSSVSVYLFWYVQYPNQGLQLLLKYLSGSTLVKGINGFEAEFNKSQTSFHLRKPSVHISDTAEYFCAVSPSSGTYKYIFGTGTRLKVLA
# V domain 2: GAGVSQTPSNKVTEKGKYVELRCDPISGHTALYWYRQSLGQGPEFLIYFQGTGAADDSGLPNDRFFAVRPEGSVSTLKIQRTERGDSAVYLCASSLYLGGSETQYFGPGTRLLVLE
# B7: TCR 31 (codon optimized, cysteine modified version) (TCR, V domains shown)
# V domain 1: DQQVKQNSPSLSVQEGRISILNCDYTNSMFDYFLWYKKYPAEGPTFLISISSIKDKNEDGRFTVFLNKSAKHLSLHIVPSQPGDSAVYFCAASERGTYKYIFGTGTRLKVLA
# V domain 2: GAGVSQSPSNKVTEKGKDVELRCDPISGHTALYWYRQSLGQGLEFLIYFQGNSAPDKSGLPSDRFSAERTGGSVSTLTIQRTQQEDSAVYLCASSRFLGSTDTQYFGPGTRLTVLE
# B8: TCR 41 (codon optimized, cysteine modified version) (TCR, V domains shown)
# V domain 1: RKEVEQDPGPFNVPEGATVAFNCTYSNSASQSFFWYRQDCRKEPKLLMSVYSSGNEDGRFTAQLNRASQYISLLIRDSKLSDSATYLCVVTFALTGGFKTIFGAGTRLFVKA
# V domain 2: EPEVTQTPSHQVTQMGQEVILRCVPISNHLYFYWYRQILGQKVEFLVSFYNNEISEKSEIFDDQFSVERPDGSNFTLKIRSTKLEDSAMYFCASNPRDRVSYEQYFGPGTRLTVTE
# B9: TCR 35 (codon optimized, cysteine modified version) (TCR, V domains shown)
# V domain 1: KDQVFQPSTVASSEGAVVEIFCNHSVSNAYNFFWYLHFPGCAPRLLVKGSKPSQQGRYNMTYERFSSSLLILQVREADAAVYYCAVAGDYKLSFGAGTTVTVRA
# V domain 2: DSGVTQTPKHLITATGQRVTLRCSPRSGDLSVYWYQQSLDQGLQFLIQYYNGEERAKGNILERFSAQQFPDLHSELNLSSLELGDSALYFCASTTSGDSSYNEQFFGPGTRLTVLE
# B10: TCR 43 (codon optimized, cysteine modified version) (TCR, V domains shown)
# V domain 1: QKEVEQNSGPLSVPEGAIASLNCTYSDRGSQSFFWYRQYSGKSPELIMFIYSNGDKEDGRFTAQLNKASQYVSLLIRDSQPSDSATYLCAVNVPTSGTYKYIFGTGTRLKVLA
# V domain 2: EPEVTQTPSHQVTQMGQEVILRCVPISNHLYFYWYRQILGQKVEFLVSFYNNEISEKSEIFDDQFSVERPDGSNFTLKIRSTKLEDSAMYFCASTPRDSYEQYFGPGTRLTVTE
# B11: TCR 36 (codon optimized, cysteine modified version) (TCR, V domains shown)
# V domain 1: RKEVEQDPGPFNVPEGATVAFNCTYSNSASQSFFWYRQDCRKEPKLLMSVYSSGNEDGRFTAQLNRASQYISLLIRDSKLSDSATYLCVVNRDNYGQNFVFGPGTRLSVLP
# V domain 2: B10 V domain 2 with S94M, P96G, D98S, S99N
# B12: TCR 40 (codon optimized, cysteine modified version) (TCR, V domains shown)
# V domain 1: GQQVMQIPQYQHVQEGEDFTTYCNSSTTLSNIQWYKQRPGGHPVFLIQLVKSGEVKKQKRLTFQFGEAKKNSSLHITATQTTDVGTYFCAGRNNFNKFYFGSGTKLNVKP
# V domain 2: B10 V domain 2 with S94I, P96A, D98S
# B13: TCR 47 (codon optimized, cysteine modified version) (TCR, V domains shown)
# V domain 1: QKEVEQNSGPLSVPEGAIASLNCTYSDRGSQSFFWYRQYSGKSPELIMFIYSNGDKEDGRFTAQLNKASQYVSLLIRDSQPSDSATYLCAVNLLSGSARQLTFGSGTQLTVLP
# V domain 2: B10 V domain 2 with S94M, P96G, D98T, S99T
# B14: TCR 48 (codon optimized, cysteine modified version) (TCR, V domains shown)
# V domain 1: QKEVEQDPGPLSVPEGAIVSLNCTYSNSAFQYFMWYRQYSRKGPELLMYTYSSGNKEDGRFTAQVDKSSKYISLFIRDSQPSDSATYLCAMRIQGAQKLVFGQGTRLTINP
# V domain 2: B10 V domain 2 with P96G, D98V
# B15: TCR 33 (codon optimized, cysteine modified version) (TCR, V domains shown)
# V domain 1: B10 V domain 1 with V93A, P94H, T95H, S96T, T98G, Y99F, Y101T, T105A, K110F, L112K
# V domain 2: B10 V domain 2 with S99T
# B16: TCR 42 (codon optimized, cysteine modified version) (TCR, V domains shown)
# V domain 1: B12 V domain 1 with R92P, N93D
# V domain 2: B10 V domain 2 with S94K, P96S, D98S
# B17: TCR 49 (codon optimized, cysteine modified version) (TCR, V domains shown)
# V domain 1: B10 V domain 1 with V93I, P94G
# V domain 2: B10 V domain 2 with D98Y
# B18: TCR 32 (codon optimized, cysteine modified version) (TCR, V domains shown)
# V domain 1: TQLLEQSPQFLSIQEGENLTVYCNSSSVFSSLQWYRQEPGEGPVLLVTVVTGGEVKKLKRLTFQFGDARKDSSLHITAAQPGDTGLYLCAGGSNYKLTFGKGTLLTVNP
# V domain 2: DSGVTQTPKHLITATGQRVTLRCSPRSGDLSVYWYQQSLDQGLQFLIQYYNGEERAKGNILERFSAQQFPDLHSELNLSSLELGDSALYFCASSVGGDHSDEQFFGPGTRLTVLE
# B19: TCR 44 (codon optimized, cysteine modified version) (TCR, V domains shown)
# V domain 1: GQNIDQPTEMTATEGAIVQINCTYQTSGFNGLFWYQQHAGEAPTFLSYNVLDGLEEKGRFSSFLSRSKGYSYLLLKELQMKDSASYLCAQYSGGYQKVTFGTGTKLQVIP
# V domain 2: DSGVTQTPKHLITATGQRVTLRCSPRSGDLSVYWYQQSLDQGLQFLIQYYNGEERAKGNILERFSAQQFPDLHSELNLSSLELGDSALYFCASSGTPDTQYFGPGTRLTVLE
# Target: T1, HLA-A2/E7 (11-19) tetramer (human; HPV 16)
# T1 construct: also called E7(11-19) peptide-MHC tetramer; E7 (11-19)-loaded tetramer
# Experiment: tetramer flow cytometry; transfected 1:1 CD4+ and CD4+/CD8+ Jurkat-derived cells;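 further: cells transiently transfected with TCR plasmids, stained 48 h later with HLA-A*02:01 peptide-MHC tetramer plus anti-CD8 antibody, read by flow cytometry to assess CD8-independent tetramer binding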
# Procedure: For transfection, the CD4+ and CD4+/CD8+ cell mixtures were transiently transfected with TCR-encoding plasmids and 48 hours after transfection, cells were assessed by flow cytometry for (1) binding of the target peptide in the context of an MHC molecule (HLA:A02:01) by staining with an E6(29-38) peptide- or an E7(11-19) peptide-MHC tetramer reagent, and/or (2) CD8+ independent binding of the target by co-staining the tetramer-labeled cells with an anti-CD8 antibody.
Binder,% cells in E7 tet+/CD8+ quadrant,% cells in E7 tet+/CD8- quadrant,% cells in E7 tet-/CD8+ quadrant,% cells in E7 tet-/CD8- quadrant
B1,12.3%,2.61%,37%,48%
B2,3.28%,0.25%,30.7%,65.8%
B3,25.5%,19.5%,22.7%,32.2%
B4,22.4%,16.9%,19.5%,41.3%
B5,26.3%,26%,6.85%,40.9%
B6,1.27%,1.21%,38.9%,58.6%
B7,4.52%,0.042%,21.1%,74.3%
B8,6.07%,2.41%,43.6%,47.9%
B9,14.5%,7.18%,35.1%,43.2%
B10,3.82%,1.88%,37.6%,56.7%
B11,23.4%,16.7%,25.4%,34.5%
B12,7.84%,1.37%,42.4%,48.4%
B13,1.98%,0.71%,40.6%,56.7%
B14,5.36%,1.29%,37%,56.4%
B15,22.6%,14%,12.8%,50.6%
B16,1.21%,1.65%,39.5%,57.4%
B17,5.54%,3.06%,27.2%,64.3%
B18,25.3%,33.5%,7.53%,33.7%
B19,2.96%,1.43%,39.9%,55.7%
